# Experimental data from the DeepSol protein solubility set.
# Assay: soluble on expression in E. coli; label from the status in PepcDB or PDB records
row,Sequence,soluble on expression in E. coli
1,MAEVITLSDDDDDVIPLTPRPPVVLKTSTTANHGNNSQATVHVSTGKNLNFDQIGIRRLSDVYNKNQPAFRGNEIPTGIRNSRPSLPATAILQNPQFLVQLAAKGLKRPFSSVHSTPAVVPSTSIQRTRNNQNAGNTPNIYKGHYMFEATESYEPSRRSSRYNTKKIEGKFMCSYNPTKCYKLCGSVVEVINHIWAHVIHDPPLPPIEKKESKDDGMFSCLLRNSDAAQLAENSALSLKRLQTCQFCNAVFRTVHLKTIHVVKCHMEQDHLDTTCNICELDFGNSIALNTHMKKHISGEAPYNCQKCKYRTSVRAFFYQHFIEKHSNETLLCPICLHHEDLRPNVRRSKHIFVREFVNHMRSHALGPQMRCHVCALTFTSRLLLEAHRTNDHTMLNSLWQVIERKSVHETEREHMSKRNKIGLLQRRFFETLEGRRINDEVACAGDKEREGFDLTTTGDTLFECECGFKSWNGNRTASHYHKCRRSINDIERKREIVRLGSDPKEELELFAVYPQPTNTEAETEEATLRKIHLERGDPLPILEDIVYQPIDDLPLLKMLSKNHDKSLEIMEKCTASAVTTED,not soluble
2,HHHHHHATGDDHFYAEYLMPGLQRLLDPESAHRLAVRVTSLGLLPRATFQDSDMLEVKVLGHKFRNPVGIAAGFDKNGEAVDGLYKLGFGFVEVGSVTPQPQEGNPRPRVFRLPEDQAVINRYGFNSHGLSVVEHRLRARQQKQAQLTADGLPLGINLGKNKTSEDAAADYAEGVRTLGPLADYLVVNVSSPNTAGLRSLQGKTELRHLLSKVLQERDALKGTRKPAVLVKIAPDLTAQDKEDIASVARELGIDGLIVTNTTVSRPVGLQGALRSETGGLSGKPLRDLSTQTIREMYALTQGRIPIIGVGGVSSGQDALEKIQAGASLVQLYTALIFLGPPVVVRVKRELEALLKERGFTTVTDAIGADHRR,soluble
3,SVCKGVSGNPAKGEVFLYKHVNFQGDSWKVTGNVYDFRSVSGLNDVVSSVKVGPNTKAFIFKDDRFNGNFIRLEESSQVTDLTTRNLNDAISSMIVATFESA,soluble
4,GSPHMLSGSGLCNSSSALPLYNQQVGDCCIIRVSLDVDNGNMYKSILVTSQDKAPAVIRKAMDKHNLEEEEPEDYELLQILSDDRKLKIPENANVFYAMNSTANYDFVLKKRTFT,soluble
5,MERSRDFLLQAKRDLEQARLSLREGFFEWAAFAAQQAAEKAVKAVFQRLGAVAWGHSVAGLLEELAQKLPVPEALLDAASELDKAYIPSRYPDALPEGAPFQRYRRGEAERLLGHAEAVYAYCEGVLSQMDEGGAPPPHRGGA,soluble
6,MQMISRITTGISMQYGLSNGTITFDDLIPELLHFGTITPTQISAITTDKLTEIVDGINGLQRKLDSSSEQLEEQLMMFASVYEKTKGVVPGSIIPKDDVYKTQLDALKIKWSKVDSFAKGIVIFLNEMESMEGVTSDDDANIKLSDMAPHLPKFKDWTLEEYNVYAQNQHLRNIHISYPSLNLVYKAVAEFFPYKNSLDGSLLPQVQENINKLNTLAEKIKPEAPMISQLHELFLSRSLKKSVNFKIISGLLNGISDIQMIFTDLKNEWVNKTVDGQAYNLGKALNQLKTLGNNAQQVDLSIVPVEEKIFKDVSNLYQKVNSLKDLTVIVRPLIGTVTGIEIPQSAIRIPAIDVIGQLIDKMKLLSSKLAALEILVHLSKTLRSAKNTIKLEKMKNITTAAEGKLELFKKSSDFKDIYKLILPAKKAAQKLKEAPTITETVTKIQTSFGNLTTFVDDLKSFLDDIKFLENIKGIDSLKPVIEVIRDYRDPKLFKKVDLSTLIGHLPKLKSTLKVLGDYIKGIKTSKHMETEALSTFTNISVGSQVVGMATRGITNMQMMSSQTVDLKIVKELKAVIDEEMKKHQLNPSDVKNLNSLDGLEDELNRIKTAISDFKKSVKPVKSFKLSNYSGFFQDAKKVPGIKINLPAIIGSVEKLKDRLSTRRRRSASASQLDTLLSLLRSLQIYDSAKFSKAFDDSAKSLQALDTSFTAYSKATSKLQGQKGSQSPRSPGSSPTKELSFLENDGEEFKITHHQVLDWNGLNALEDHRGAGLAAMFLMKYETTAIVHCVDGVSRSAVLAGMIIGFQKIIETRGDMNVADLIDDLRKQRAMAITSGLELAFVDAGIFLLFKRMMNNFEEEYPEDLKQMLKDAVQYYKLIAGYQVQQRDNYFKKLDNMGKKQMNQKKSTEEGVDKSKEQGKDATVMKEKSPLAKVN,not soluble
7,MGKKNEKIVEEAEKVEAETMEVDEQPQETPQVDDEEDLNVPSKKKMEILDPKSFEQDPSNLTLIMYEEDHTIGNSIKHILSRMDEVEFCGYNVPHPLEDKILFRVQTKDGINALEVLAKAFESVEQIFSTIRGKFEESYEQSQS,soluble
8,MHEWALADAIVRTVLDYAQKEGASRVKAVKVVLGELQDVGEDIVKFAMEELFRGTIAEGAEIIFEEEEAVFKCRNCGHVWKLKEVKDKLDERIREDIHFIPEVVHAFLSCPKCGSHDFEVVKGRGVYISGIMIEKEGEELEHHHHHH,soluble
9,MGHHHHHHSHMSWWDYGYQIAGMANRTTLVDNNTWNNSHIALVGKAMSSNETAAYKIMRTLDVDYVLVIFGGVIGYSGDDINKFLWMVRIAEGEHPKDIRESDYFTPQGEFRVDKAGSPTLLNCLMYKMSYYRFGEMQLDFRTPPGFDRTRNAEIGNKDIKFKHLEEAFTSEHWLVRIYKVKAPDNRETLDHKPRVTNIFPKQKYLSKKTTKRKRGYIKNKLVFKKGKKIFKKTV,not soluble
10,MTEQERLELEAAAFRRLVAHLDSRKDVQNIDLMNLSGFCRNCLSKWYKAAADEKHIDITLDDAREVVYGMPYSEWKANYQKEASAEQQAAFVKESKHD,soluble
11,MEIDEGKYECEACGYIYEPEKGDKFAGIPPGTPFVDLSDSFMCPACRSPKNQFKSIKKVIAGFAENQKYG,soluble
12,MGSSHHHHHHSSGLVPRGSMEFVKDLKTPEDYINNELKYGAHNYDPIPVVLKRAKGVFVYDVNDKRYYDFLSAYSSVNQGHCHPNILNAMINQAKNLTICSRAFFSVPLGICERYLTNLLGYDKVLMMNTGAEANETAYKLCRKWGYEVKKIPENMAKIVVCKNNFSGRTLGCISASTTKKCTSNFGPFAPQFSKVPYDDLEALEEELKDPNVCAFIVEPIQGEAGVIVPSDNYLQGVYDICKKYNVLFVADEVQTGLGRTGKLLCVHHYNVKPDVILLGKALSGGHYPISAVLANDDIMLVIKPGEHGSTYGGNPLAASICVEALNVLINEKLCENAEKLGGPFLENLKRELKDSKIVRDVRGKGLLCAIEFKNELVNVLDICLKLKENGLITRDVHDKTIRLTPPLCITKEQLDECTEIIVKTVKFFDERF,soluble
13,METETDDSETSLNDSFGNKDGLELLEYERATLAKTLPASVLFVVANGLGLERLFLEHLILFSDRRLLALVLNTNEHDESYFVSKLKEHNVECDPKVINSEVSIKDRQSIYLEGGVQFCSSRVLLVDLLQNRIPTDRIAAIFVYRAHQTLNAFQDSFILRLYREKKPDGTVKAFTDFPNSLSSLGQLQRLVDRLYIRHVELMPRFSSIIESELNRYQLKTAIFSVDVPTPLRRVHRTIIEFIKVCVRDLRTCSTSGKQTDEQNEEMIHVPWAATRLEKRLHDRRGHISEKQQRLLNDVASLREILQLSENMDVATVLSRLQVLKNDRTVLEEHSGWLLSPSFNRIMEDLLTIAGVTNGKADYKKFATPAKWTVLSEILREIKMLPVEKKDRGNDSPSVLVITSSEDLSRQVTDVVRYGINKMKWMTWRQLGYKSTQEMPEDEPLWDPDTISQLMRSSVDGESKSEVIANVQKTQKTTARAAQKRRKHAEELSGFSSDHRVQTNLIQFGILQYKRRKSGNEASTSQETTEWEVKEEMEEIEEITKNIGDLEAELVVSTTRERERYTLLKLLETKKPRAIVLYTMSLQTLRQIEIYRSTNPNRSLHVYWLQYTESTEESRYLESINRETMSFELLIREQGTLLISREFNVDREDAPRLKISTRDGGGARRDGAVDPRDQMDPEEELERPKIIVDMREFNSELPTVLYTKGYNVVATTIEIGDYILSPNIAIERKALDDLTQSLQSGRVFKQIEQMLEHYDCTVLLIESNRKFETKIVNGGPFQGELSRHCREIRSIFCSLIWANPKMRCVWTISPTNSAEFFSELKLSAPEPDVDRAISLKADQVECSSQELTDSEASTSTKAKKGKKWKPNPTVIRTLTQIFGIKASEAHNLLANSSIKTLADLFSLNITASHLSDFIPSTSADFIKDLSTFNFGRK,not soluble
14,LKFPKVAVVGSRACSKQGAKSVEKVIQGLENELVIVSGLAKGIDTAAHMAALQNGGKTIAVIGTGLDVFYPKANKRLQDYIGNDHLVLSEYGPGEQPLKFHFPARNRIIAGLCRGVIVAEAKMRSGSLITCERAMEEGRDVFAIPGSILDGLSDGCHHLIQEGAKLVTSGQDVLAEFEF,not soluble
15,MKIAIASSGTDLGSEVSRFFGRAPYFMIVEMKKGNIESSEVIENPSASASGGAGIRTAQIIANNGVKAVIASSPGPNAFEVLNELGIKIYRATGTSVEENLKLFTEGNLEEIRSPGSGRGRRRR,soluble
16,MEMYFKRMKDEWTGLVEQADPPIRAKAAEIAVAHAHYLSIEFYRIVRIDPHAEEFLSNEQVERQLKSAMERWIINVLSAQVDDVERLIQIQHTVAEVHARIGIPVEIVEMGFRVLKKILYPVIFSSDYSAAEKLQVYHFSINSIDIAMEVMTRAFTFSDSLEHHHHHH,not soluble
17,GKNLNWDFDANISFNRNKISGLPGDQFAQGWSKADNVFLQRNGMPIGTIYGFVEDGFYDNIAEVRADPFYAKESEAVCKAMVGEVKYKDFDGVAGITNADRQVIGDTNPDFTFGMTHNFTYKNFSLSFFLQGCVGGDIFNANLLEVTMSGIGNIPQNIYESRWTPENRENAKWPKAYAGYGRTMKLSDRYVEDGSYLRMKNINLGYKFISPFKGIESINLFASVSNVFTISGYSWYDPDVNSFGSDASRRGVDLFSYPSSRTFSFGLQCTF,not soluble
18,MGSDKIHHHHHHMPNTIHQDEGRPIVNSNDHDSPAESRASGVLNLTHLRTLVAVVQEGHLTRAAERLRISQPAASHHLRSLEQQFGLPLFTRTPQGVVPTAAGLQLSEQAARLLASSLELLSTASELRGSASGRIAIGTIEDPSVHAALPSLIKWFHEHYPLIELSIESRNSSSIRQGILTGEINAGFYVSCTNEANLREYEIGQRELVVVAPQSWRERVATATWPELAKLPWVMTTTGSAHSEITAQLFRSHNITIRPALEVNTERLLRAMVSQGVGLGFTRREFAEAEQARGAFFIVPISVHRTTMHFAYARSAETDPLIQILSRGLATVLPVAERLIPSTAKPAEK,not soluble
19,MGSDKIHHHHHHMKQIDLVYRTAFAELAQRTFDAQFQADFPLEGRFVAVPVKGRNYWYFDLPTPEGKDKRRYVGPQDDVDITARVKAHRQVKDDIRERRKLVGMLLRSGGMSAPDRFAGEVTKALADAGLFRLRALLVGSVAFSCYSGLLGVRLPGTSMQTGDADFAQDFAISAEVEDSLPPILDLLRSIDSTFRAVPHQADNAKVVAFSNSVNYRVEFLTTNRGSDDYTGKPSPMPALGGASAENLRFLDFLIYEPVRTVLLHREGVSVNIPAPERYAIHKLIVASRRRTDALGRAKRDKDLVQASLLCEALVETRQSHLLADAYREAWTRGEAWQEGILSGLVLMPDNGKLALANALGVTVDRLGKA,not soluble
20,MDYTKYLAGRANWIKGSALADVMKKASELQKKGVKLISLAAGDPDPELIPRAVLGEIAKEVLEKEPKSVMYTPANGIPELREELAAFLKKYDHLEVSPENIVITIGGTGALDLLGRVLIDPGDVVITENPSYINTLLAFEQLGAKIEGVPVDNDGMRVDLLEEKIKELKAKGQKVKLIYTIPTGQNPMGVTMSMERRKALLEIASKYDLLIIEDTAYNFMRYEGGDIVPLKALDNEGRVIVAGTLSKVLGTGFRIGWIIAEGEILKKVLMQKQPIDFCAPAISQYIALEYLKRGYFEKYHLEGALLGYKEKRDIMLKALENHLPNAEFTKPIAGMFVMFFLPEGADGISFANELMEREGVVVVPGKPFYTDESGKNAIRLNFSRPSKEEIPIGIKKLAKLYKEKFGE,soluble
